Experiments:
[1] = system: healthy cord blood CD34+ cells; test: cells; type: cell-based, human
Procedure: Umbilical cord blood (UCB) was collected with written consent from full-term deliveries at the Women's Health Unit, Lyell McEwin Hospital (Adelaide, South Australia) or the Department of Obstetrics and Gynecology, Medical University of Graz (Austria) with institutional review board approval (IRB approval: 31-322 ex 18/19; HREC/20/WCHN/65). Samples were processed using a Ficoll-Paque (GE Healthcare) density gradient to isolate mononuclear cells (800×g, room temperature, 30 minutes, deceleration off), followed by red cell lysis (ammonium-chloride-potassium lysing buffer) to remove remaining red blood cells. CD34 enrichment was performed by magnetic cell separation using CD34 Microbead kit (Miltenyi Biotech). Alternatively, purified CD34+ cells from cord-blood were purchased from Lonza. CD34+ cells with a purity above 90% were either cryopreserved or directly cultured in serum-free stem cell retention media (StemSpan SFEMII, Stemcell Technologies, Vancouver, BC, Canada) supplemented with human recombinant SCF, TPO, FLT3, IL-6 (all 20 ng/mL), UM729 (1.75 uM) and StemReginin 1 (SR1, 300 nM). All cytokines and SRI were purchased from PeproTech (Rocky Hill, NJ, USA) whereas UM729 was purchased from Stemcell Technologies.
For megakaryocyte differentiation assays, CD34+ cells derived from cord blood or from patient peripheral blood mononuclear fractions were plated in Megacult (MegaCult™-C Collagen and Medium with Lipids) with added IL-3 and IL-6 (10 ng/ml) in the presence or absence of 50 ng/mL TPO. Cells were plated at an initial density of 1800 cells/well and cultured for 12 days at 37° C. and 5% CO2. […] Culture media was replenished every 3 days and cells were assessed for megakaryocyte differentiation on day 12 using anti-human CD41/61 PE-Cy7 (Clone A2A9/6) and CountBright beads (Thermo Fisher) to enumerate cell numbers. […] Cells were seeded at approximately 100 cells per well and were cultured in the presence of 20 μg/mL 4D7 or control IgG antibody and scored for colony and blast forming units at 12-14 days.

[2] = biological target: T1, mutant CALR dimers and monomers bound to TpoR in TF-1 TpoR CALR^del61 (Homo sapiens, UniProt P27797); test: TpoR immunoprecipitation under non-reducing conditions; type: cell-based; details: 8 hour treatment with 20 μg/mL
T1 construct: expressed in transfected cells; host or cells: TF-1 TpoR CALR^del61
T1 sequence (P27797 with tags, fused parts or gaps limits assumed): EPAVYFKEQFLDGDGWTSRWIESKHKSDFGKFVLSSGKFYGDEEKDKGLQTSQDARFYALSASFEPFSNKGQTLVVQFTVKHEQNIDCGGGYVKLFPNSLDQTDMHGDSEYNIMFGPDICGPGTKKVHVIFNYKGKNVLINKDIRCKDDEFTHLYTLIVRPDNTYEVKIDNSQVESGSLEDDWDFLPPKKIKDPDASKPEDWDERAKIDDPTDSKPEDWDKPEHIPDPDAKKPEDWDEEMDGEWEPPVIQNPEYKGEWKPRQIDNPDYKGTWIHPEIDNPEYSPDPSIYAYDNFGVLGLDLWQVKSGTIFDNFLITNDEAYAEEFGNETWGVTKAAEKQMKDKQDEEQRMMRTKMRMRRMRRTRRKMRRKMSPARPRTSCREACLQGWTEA
Procedure: A. Cell extracts blotted for phospho-STAT5, total STAT5, phospho-ERK, total ERK and actin from TF-1 TpoR cells after incubation with 10 or 20 μg/mL 4D7 or IgG for 4 or 8 hours, in presence of TPO. The last line indicates TPO withdrawal. B. Similar experiment using TPO-independent TF-1 TpoR CALR^del61 cells. C. Similar experiment using TPO-independent TF-1 TpoR CALR^del52 cells at 8 hours. D. Fraction of apoptotic sub-Go population of TF-1 TpoR CALR^del61 cells after 48 hours of 4D7 or IgG treatment (n=3). E. Western blot showing caspase 3 cleavage occurring within 24 hours of TPO withdrawal in TPO dependent TF-1 TpoR cells. An increase in cleaved caspase 3 is observed after 48 hours of treatment with 20 μg/mL 4D7 in TF-1 TpoR CALR^del61 and TF-1 TpoR CALR^del52 cells. F. Western blot of TpoR immunoprecipitation under non-reducing conditions showing associated CALR 50 kDa monomers and 100 kDa dimers (arrowheads) present only in TF-1 TpoR CALR^del61 disrupted by 8 hour treatment with 20 μg/mL 4D7 but not PBS or 20 μg/mL IgG. CALR monomers & dimers are detectable by polyclonal anti-wild type CALR or anti-mutant CALR monoclonal antibodies. Arrowheads, detected mutant CALR protein: asterisk, non-specific bands. G. Proposed model for the mechanism of action of 4D7 on mutant CALR. […]

B1: 4D7: rat monoclonal IgG2a antibody against the mutant CALR neoepitope; VH SEQ ID NO: 5, VL SEQ ID NO: 7 (antibody, listed as Rattus rattus, V domains shown)
VH: QVQLQQSGAELAKPGSSVKISCKASGYTFTNYDMSWIKQRPGQALEWIGAINPGNGVTDYNEKFRGKATLTVDKSSSTAFMQLSSLTPEDTAVYHCAREYRDNYGYFDYWGQGVMVTVSS
VL: DIVLTQTPVSLSVTLGDQASISCRSSQSLEYSDGYTYLDWFLQKPGQSPQLLIYEVSSRFSGVPDRFIGRGSGTDFTLKISRVEPEDLGVYYCFQATHDPFTFGSGTKLEIK
effect on normal hematopoiesis [1]: no effect
presence of CALR disulfide-linked dimers and CALR monomers bound to TpoR [2]: diminished

Source: patent US20250236667A1, “ANTIBODIES TO MUTANT CALRETICULIN AND USES THEREOF” (CENTRAL ADELAIDE LOCAL HEALTH NETWORK INC, priority 2021, published 2025)
